{"source": "patent US20230136301A1", "about": "“Corticosteriod Reduction in Treatment with Anti-CD38 Antibody” (Janssen Biotech, Inc., priority 2021, published 2023)", "test_system": "patients with RRMM", "experiment": "PAVO Part 3: treatment-emergent adverse events with DARA SC and corticosteroid tapering", "note": "“And” between values parts separate entries of the source, which are not always exact repeats. Equal values may be shown once.", "description": "The PAVO (MMY1004) trial is an open-label, nonrandomized, multicenter, phase lb study consisting of 3 parts. […] Safety was assessed, with an emphasis on IRRs, while corticosteroids were reduced and discontinued.\nThe purpose of Part 3 was to evaluate the safety of daratumumab 1,800 mg SC delivery without predose and postdose corticosteroids after a 3-week, 2-week, and 1-week tapering schedule to assess the safety of corticosteroid-free SC daratumumab administration. A total of 42 participants were treated. […] In conjunction, patients also received a 3-week, 2-week, or 1-week steroid tapering schedule (FIG. 2). The 3-week tapering schedule (corticosteroid-free by Cycle 1 Day 22) consisted of methylprednisolone (MP) given orally (PO)/IV pre-dose (Cycle 1 Day 1, 100 mg; Cycle 1 Day 8, 60 mg; Cycle 1 Day 15, 30 mg) and PO post-dose (Cycle 1 Day 1, 20 mg for 2 days; Cycle 1 Day 8, 20 mg for 1 day; Cycle 1 Day 15, 20 mg for 1 day). The 2-week tapering schedule (corticosteroid-free by Cycle 1 Day 15) consisted of MP given PO/IV pre-dose (Cycle 1 Day 1, 100 mg; Cycle 1 Day 8, 60 mg) and PO post-dose (Cycle 1 Day 1, 20 mg for 2 days; Cycle 1 Day 8, 20 mg for 1 day). The 1-week tapering schedule (corticosteroid-free by Cycle 1 Day 8) consisted of dexamethasone 20 mg administered IV pre-dose on Cycle 1 Day 1, without post-dose administration.\nThe 3-week, 2-week and 1-week steroid tapering schedules were assessed by “3+3” design, followed by cohort expansion to approximately 15 patients (3-week and 2-week tapering cohorts) or 12 patients (1-week tapering cohort). The dose-limiting toxicity (DLT) assessment period in the 3-week, 2-week and 1-week tapering cohorts were Cycle 1 Day 1 through Cycle 2 Day 4, Cycle 1 Day 1 through Cycle 1 Day 25, and Cycle 1 Day 1 through Cycle 1 Day 11, respectively. […] Grade 3 or 4 IRRs only qualified as DLTs if they occurred during corticosteroid reduction or discontinuation (not during Cycle 1 Day 1). For the 3-week and 2-week groups, IRRs reported at Cycle 1 Day 1 were not considered DLTs, as corticosteroids had not yet been reduced or discontinued. Up to approximately 12 patients could be enrolled in the 1-week tapering schedule to assess safety, including IRRs.\nSafety assessments included treatment-emergent adverse events (TEAEs), serious adverse events, and IRRs. All toxicities were graded according to the National Cancer Institute's Common Terminology for the Classification of Adverse Events (NCI-CTCAE) Version 4.03 (National Cancer Institute. Common Terminology Criteria for Adverse Events (CTCAE): Version 4.03.).\nThe safety and efficacy populations, defined as all patients who received ≥1 dose of study drug, was the primary population for analysis. […] The pharmacokinetic-evaluable population was defined as all patients who received ≥1 dose of study drug and provided ≥1 post-infusion pharmacokinetic sample. The immunogenicity population was defined as all patients who received ≥1 dose of study drug and provided ≥1 post-infusion immunogenicity sample.", "data": [{"substance": "DARA SC: 1,800 mg daratumumab co-formulated with 30,000 U rHuPH20 (2,000 U/mL, 15 mL), manual subcutaneous injection", "values": [{"measurement": "Vomiting, TEAE", "setting": "2-week taper n=15", "value": "2 (13.3%) n (%)"}, {"measurement": "Grade 5 TEAEs", "setting": "2-week taper, general physical health deterioration", "value": "1 (6.7%) n (%)"}, {"measurement": "Grade ≥3 TEAEs, participants", "setting": "3-week taper", "value": 60, "unit": "%"}, {"measurement": "Nausea, participants", "setting": "3-week taper", "value": 53, "unit": "%"}, {"measurement": "Nervous system disorders", "setting": "3-week taper", "value": 46.7, "unit": "%"}, {"measurement": "Patients who died due to complications from DLBCL", "setting": "3-week taper", "value": "One"}, {"measurement": "TEAEs with an outcome of death", "setting": "3-week taper", "value": "No deaths"}, {"measurement": "Anemia, any grade TEAE", "setting": "3-week taper n=15", "value": "1 (6.7) n (%) and 1 (6.7%) n (%)"}, {"measurement": "Anemia, grade ≥3 TEAE", "setting": "3-week taper n=15", "value": "1 (6.7) n (%) and 1 (6.7%) n (%)"}, {"measurement": "Any TEAE", "setting": "3-week taper n=15", "value": "15 (100)^ n (%) and 15 (100.0%) n (%)"}, {"measurement": "Any grade ≥3 TEAE", "setting": "3-week taper n=15", "value": "9 (60.0) n (%) and 9 (60.0%) n (%)"}, {"measurement": "Arthralgia, any grade TEAE", "setting": "3-week taper n=15", "value": "3 (20.0) n (%) and 3 (20.0%) n (%)"}, {"measurement": "Asthenia, any grade TEAE", "setting": "3-week taper n=15", "value": "1 (6.7) n (%) and 1 (6.7%) n (%)"}, {"measurement": "Back pain, TEAE", "setting": "3-week taper n=15", "value": "1 (6.7%) n (%)"}, {"measurement": "Blood and lymphatic system disorders (SOC), TEAE", "setting": "3-week taper n=15", "value": "4 (26.7%) n (%)"}, {"measurement": "Blood and lymphatic system disorders (SOC), grade 3 or higher TEAE", "setting": "3-week taper n=15", "value": "3 (20.0%) n (%)"}, {"measurement": "Bone pain, TEAE", "setting": "3-week taper n=15", "value": "2 (13.3%) n (%)"}, {"measurement": "Bone pain, grade ≥3 TEAE", "setting": "3-week taper n=15", "value": "1 (6.7) n (%) and 1 (6.7%) n (%)"}, {"measurement": "Chills, TEAE", "setting": "3-week taper n=15", "value": "2 (13.3%) n (%)"}, {"measurement": "Constipation, TEAE", "setting": "3-week taper n=15", "value": "2 (13.3%) n (%)"}, {"measurement": "Cough, any grade TEAE", "setting": "3-week taper n=15", "value": "3 (20.0) n (%) and 3 (20.0%) n (%)"}, {"measurement": "Decreased appetite, TEAE", "setting": "3-week taper n=15", "value": "3 (20.0%) n (%)"}, {"measurement": "Diarrhea, any grade TEAE", "setting": "3-week taper n=15", "value": "4 (26.7) n (%) and 4 (26.7%) n (%)"}, {"measurement": "Dizziness, any grade TEAE", "setting": "3-week taper n=15", "value": "4 (26.7) n (%) and 4 (26.7%) n (%)"}, {"measurement": "Erythema, any grade TEAE", "setting": "3-week taper n=15", "value": "2 (13.3) n (%) and 2 (13.3%) n (%)"}, {"measurement": "Fatigue, any grade TEAE", "setting": "3-week taper n=15", "value": "4 (26.7) n (%) and 4 (26.7%) n (%)"}, {"measurement": "Gastrointestinal disorders (SOC), TEAE", "setting": "3-week taper n=15", "value": "9 (60.0%) n (%)"}, {"measurement": "General disorders and administration site conditions (SOC), TEAE", "setting": "3-week taper n=15", "value": "11 (73.3%) n (%)"}, {"measurement": "Headache, any grade TEAE", "setting": "3-week taper n=15", "value": "5 (33.3) n (%) and 5 (33.3%) n (%)"}, {"measurement": "Lymphopenia, grade ≥3 TEAE", "setting": "3-week taper n=15", "value": "2 (13.3%) n (%) and 2 (13.3) n (%)"}, {"measurement": "Metabolism and nutrition disorders (SOC), TEAE", "setting": "3-week taper n=15", "value": "7 (46.7%) n (%)"}, {"measurement": "Muscle spasms, any grade TEAE", "setting": "3-week taper n=15", "value": "1 (6.7) n (%)"}, {"measurement": "Musculoskeletal and connective tissue disorders (SOC), TEAE", "setting": "3-week taper n=15", "value": "6 (40.0%) n (%)"}, {"measurement": "Musculoskeletal and connective tissue disorders (SOC), grade 3 or higher TEAE", "setting": "3-week taper n=15", "value": "2 (13.3%) n (%)"}, {"measurement": "Nasopharyngitis, any grade TEAE", "setting": "3-week taper n=15", "value": "5 (33.3) n (%) and 5 (33.3%) n (%)"}, {"measurement": "Nausea, any grade TEAE", "setting": "3-week taper n=15", "value": "8 (53.5%) n (%) and 8 (53.3%) n (%) and 8 (53.3) n (%)"}, {"measurement": "Nervous system disorders (SOC), TEAE", "setting": "3-week taper n=15", "value": "7 (46.7%) n (%)"}, {"measurement": "Neutropenia, grade ≥3 TEAE", "setting": "3-week taper n=15", "value": "0 n (%)"}, {"measurement": "Oropharyngeal pain, TEAE", "setting": "3-week taper n=15", "value": "2 (13.3%) n (%)"}, {"measurement": "Pain in extremity, any grade TEAE", "setting": "3-week taper n=15", "value": "4 (26.7) n (%) and 4 (26.7%) n (%)"}, {"measurement": "Patients with a serious TEAE", "setting": "3-week taper n=15", "value": "6 (40.0%) n (%)"}, {"measurement": "Peripheral edema, any grade TEAE", "setting": "3-week taper n=15", "value": "1 (6.7) n (%) and 1 (6.7%) n (%)"}, {"measurement": "Pyrexia, any grade TEAE", "setting": "3-week taper n=15", "value": "4 (26.7) n (%) and 4 (26.7%) n (%)"}, {"measurement": "Respiratory, thoracic and mediastinal disorders (SOC), TEAE", "setting": "3-week taper n=15", "value": "6 (40.0%) n (%)"}, {"measurement": "Skin and subcutaneous tissue disorders (SOC), TEAE", "setting": "3-week taper n=15", "value": "6 (40.0%) n (%)"}, {"measurement": "Vomiting, TEAE", "setting": "3-week taper n=15", "value": "2 (13.3%) n (%)"}, {"measurement": "Anemia, TEAE of Grade >3", "setting": "PAVO Part 3", "value": 9.5, "unit": "%"}, {"measurement": "Serious TEAEs in SOC General disorders and administration site conditions", "setting": "PAVO Part 3", "value": 4.8, "unit": "%"}, {"measurement": "TEAEs in SOC General disorders and administration site conditions", "setting": "PAVO Part 3", "value": 71.4, "unit": "%"}, {"measurement": "Anemia, any grade TEAE", "setting": "Total n=42", "value": "7 (16.7) n (%) and 7 (16.7%) n (%)"}, {"measurement": "Anemia, grade ≥3 TEAE", "setting": "Total n=42", "value": "4 (9.5) n (%) and 4 (9.5%) n (%)"}, {"measurement": "Any grade ≥3 TEAE", "setting": "Total n=42", "value": "21 (50.0%) n (%) and 21 (50.0) n (%)"}, {"measurement": "Arthralgia, any grade TEAE", "setting": "Total n=42", "value": "10 (23.8) n (%) and 10 (23.8%) n (%)"}, {"measurement": "Asthenia, any grade TEAE", "setting": "Total n=42", "value": "7 (16.7) n (%) and 7 (16.7%) n (%)"}, {"measurement": "Back pain, TEAE", "setting": "Total n=42", "value": "6 (14.3%) n (%)"}, {"measurement": "Blood and lymphatic system disorders (SOC), TEAE", "setting": "Total n=42", "value": "11 (26.2%) n (%)"}, {"measurement": "Blood and lymphatic system disorders (SOC), grade 3 or higher TEAE", "setting": "Total n=42", "value": "8 (19.0%) n (%)"}, {"measurement": "Bone pain, TEAE", "setting": "Total n=42", "value": "7 (16.7%) n (%)"}, {"measurement": "Bone pain, grade ≥3 TEAE", "setting": "Total n=42", "value": "3 (7.1) n (%) and 3 (7.1%) n (%)"}, {"measurement": "Chills, TEAE", "setting": "Total n=42", "value": "5 (11.9%) n (%)"}, {"measurement": "Constipation, TEAE", "setting": "Total n=42", "value": "7 (16.7%) n (%)"}, {"measurement": "Cough, any grade TEAE", "setting": "Total n=42", "value": "7 (16.7) n (%) and 7 (16.7%) n (%)"}, {"measurement": "Decreased appetite, TEAE", "setting": "Total n=42", "value": "5 (11.9%) n (%)"}, {"measurement": "Diarrhea, any grade TEAE", "setting": "Total n=42", "value": "11 (26.2) n (%) and 11 (26.2%) n (%)"}, {"measurement": "Dizziness, any grade TEAE", "setting": "Total n=42", "value": "5 (11.9) n (%) and 5 (11.9%) n (%)"}, {"measurement": "Erythema, any grade TEAE", "setting": "Total n=42", "value": "6 (14.3) n (%) and 6 (14.3%) n (%)"}, {"measurement": "Fatigue, any grade TEAE", "setting": "Total n=42", "value": "9 (21.4) n (%) and 9 (21.4%) n (%)"}, {"measurement": "Gastrointestinal disorders (SOC), TEAE", "setting": "Total n=42", "value": "24 (57.1%) n (%)"}, {"measurement": "General disorders and administration site conditions (SOC), TEAE", "setting": "Total n=42", "value": "30 (71.4%) n (%)"}, {"measurement": "Headache, any grade TEAE", "setting": "Total n=42", "value": "7 (16.7) n (%) and 7 (16.7%) n (%)"}, {"measurement": "Lymphopenia, grade ≥3 TEAE", "setting": "Total n=42", "value": "3 (7.1) n (%) and 3 (7.1%) n (%)"}, {"measurement": "Metabolism and nutrition disorders (SOC), TEAE", "setting": "Total n=42", "value": "12 (28.6%) n (%)"}, {"measurement": "Muscle spasms, any grade TEAE", "setting": "Total n=42", "value": "4 (9.5) n (%)"}, {"measurement": "Musculoskeletal and connective tissue disorders (SOC), TEAE", "setting": "Total n=42", "value": "23 (54.8%) n (%)"}, {"measurement": "Musculoskeletal and connective tissue disorders (SOC), grade 3 or higher TEAE", "setting": "Total n=42", "value": "4 (9.5%) n (%)"}, {"measurement": "Nasopharyngitis, any grade TEAE", "setting": "Total n=42", "value": "11 (26.2) n (%) and 11 (26.2%) n (%)"}, {"measurement": "Nausea, any grade TEAE", "setting": "Total n=42", "value": "13 (31.0) n (%) and 13 (31.0%) n (%)"}, {"measurement": "Nervous system disorders (SOC), TEAE", "setting": "Total n=42", "value": "13 (31.0%) n (%)"}, {"measurement": "Neutropenia, grade ≥3 TEAE", "setting": "Total n=42", "value": "3 (7.1) n (%) and 3 (7.1%) n (%)"}, {"measurement": "Oropharyngeal pain, TEAE", "setting": "Total n=42", "value": "5 (11.9%) n (%)"}, {"measurement": "Pain in extremity, any grade TEAE", "setting": "Total n=42", "value": "8 (19.0) n (%) and 8 (19.0%) n (%)"}, {"measurement": "Patients who died during the study", "setting": "Total n=42", "value": 6, "unit": "patients"}, {"measurement": "Patients with a grade 3/4 TEAE", "setting": "Total n=42", "value": "18 (42.9%) n (%)"}, {"measurement": "Patients with a serious TEAE", "setting": "Total n=42", "value": "16 (38.1%) n (%)"}, {"measurement": "Peripheral edema, any grade TEAE", "setting": "Total n=42", "value": "5 (11.9) n (%) and 5 (11.9%) n (%)"}, {"measurement": "Pyrexia, any grade TEAE", "setting": "Total n=42", "value": "9 (21.4) n (%) and 9 (21.4%) n (%)"}, {"measurement": "Respiratory, thoracic and mediastinal disorders (SOC), TEAE", "setting": "Total n=42", "value": "15 (35.7%) n (%)"}, {"measurement": "Skin and subcutaneous tissue disorders (SOC), TEAE", "setting": "Total n=42", "value": "11 (26.2%) n (%)"}, {"measurement": "Vomiting, TEAE", "setting": "Total n=42", "value": "6 (14.3%) n (%)"}, {"measurement": "Patients who died due to progressive disease", "setting": "all cohorts, 1 in each cohort", "value": 3, "unit": "patients"}]}]}
